± gives the standard deviation of the averaged measurements.
Test: total protein half-life in vivo (active degradation + dilution); higher = more stable protein
[1] = E. coli NCM3722 delta-clpP delta-lon delta-hslV, growth: N-lim chemostat, doubling time 6 h
[2] = E. coli NCM3722 delta-clpP, growth: N-lim chemostat, doubling time 6 h
[3] = E. coli NCM3722 delta-hslV, growth: N-lim chemostat, doubling time 6 h
[4] = E. coli NCM3722 delta-lon, growth: N-lim chemostat, doubling time 6 h
[5] = E. coli NCM3722 delta-smpB, growth: N-lim chemostat, doubling time 6 h
[6] = wild type E. coli NCM3722, growth: C-lim chemostat, doubling time 3 h
[7] = wild type E. coli NCM3722, growth: C-lim chemostat, doubling time 6 h
[8] = wild type E. coli NCM3722, growth: C-lim chemostat, doubling time 12 h
[9] = wild type E. coli NCM3722, growth: N-lim chemostat, doubling time 6 h
[10] = wild type E. coli NCM3722, growth: N-lim chemostat, doubling time 12 h
[11] = wild type E. coli NCM3722, growth: P-lim chemostat, doubling time 6 h
[12] = wild type E. coli NCM3722, growth: P-lim chemostat, doubling time 12 h

Sequence	total protein half-life in vivo [1] [h]	total protein half-life in vivo [2] [h]	total protein half-life in vivo [3] [h]	total protein half-life in vivo [4] [h]	total protein half-life in vivo [5] [h]	total protein half-life in vivo [6] [h]	total protein half-life in vivo [7] [h]	total protein half-life in vivo [8] [h]	total protein half-life in vivo [9] [h]	total protein half-life in vivo [10] [h]	total protein half-life in vivo [11] [h]	total protein half-life in vivo [12] [h]
MQSLHGNCLIAYARHKYILTMVNGEYRYFNGGDLVFADASQIRVDKCVENFVFVSRDTLSLFLPMLKEEALNLHAHKKVSSLLVHHCSRDIPVFQEVAQLSQNKNLRYAEMLRKRALIFALLSVFLEDEHFIPLLLNVLQPNMRTRVCTVINNNIAHEWTLARIASELLMSPSLLKKKLREEETSYSQLLTECRMQRALQLIVIHGFSIKRVAVSCGYHSVSYFIYVFRNYYGMTPTEYQERSAQRLSNRDSAASIVAQGNFYGTDRSAEGIRL	6.49 ± 1	1.14	–	–	–	–	–	–	–	–	–	–
MQSVTPTSQYLKALNEGSHQPDDVQKEAVSRLEIIYQELINSTPPAPRTSGLMARVGKLWGKREDTKHTPVRGLYMWGGVGRGKTWLMDLFYQSLPGERKQRLHFHRFMLRVHEELTALQGQTDPLEIIADRFKAETDVLCFDEFFVSDITDAMLLGGLMKALFARGITLVATSNIPPDELYRNGLQRARFLPAIDAIKQHCDVMNVDAGVDYRLRTLTQAHLWLSPLHDETRAQMDKLWLALAGGKRENSPTLEINHRPLATMGVENQTLAVSFTTLCVDARSQHDYIALSRLFHTVMLFDVPVMTRLMESEARRFIALVDEFYERHVKLVVSAEVPLYEIYQGDRLKFEFQRCLSRLQEMQSEEYLKREHLAG	3.66 ± 0.54	2.97 ± 0.16	3.35 ± 0.15	2.58	3.103 ± 0.03	2.72 ± 0.05	5.71 ± 0.58	9.73 ± 1.3	3.4 ± 0.15	5.55 ± 0.15	5.25 ± 0.66	9.34 ± 1.1
MQTFQADLAIVGAGGAGLRAAIAAAQANPNAKIALISKVYPMRSHTVAAEGGSAAVAQDHDSFEYHFHDTVAGGDWLCEQDVVDYFVHHCPTEMTQLELWGCPWSRRPDGSVNVRRFGGMKIERTWFAADKTGFHMLHTLFQTSLQFPQIQRFDEHFVLDILVDDGHVRGLVAMNMMEGTLVQIRANAVVMATGGAGRVYRYNTNGGIVTGDGMGMALSHGVPLRDMEFVQYHPTGLPGSGILMTEGCRGEGGILVNKNGYRYLQDYGMGPETPLGEPKNKYMELGPRDKVSQAFWHEWRKGNTISTPRGDVVYLDLRHLGEKKLHERLPFICELAKAYVGVDPVKEPIPVRPTAHYTMGGIETDQNCETRIKGLFAVGECSSVGLHGANRLGSNSLAELVVFGRLAGEQATERAATAGNGNEAAIEAQAAGVEQRLKDLVNQDGGENWAKIRDEMGLAMEEGCGIYRTPELMQKTIDKLAELQERFKRVRITDTSSVFNTDLLYTIELGHGLNVAECMAHSAMARKESRGAHQRLDEGCTERDDVNFLKHTLAFRDADGTTRLEYSDVKITTLPPAKRVYGGEADAADKAEAANKKEKANG	5.99 ± 0.19	5.68 ± 0.083	6.59 ± 0.5	6.24 ± 0.66	5.45 ± 0.11	2.97 ± 0.033	6.38 ± 0.42	12.1 ± 1.9	6.2 ± 0.28	11.3 ± 1.7	6.03 ± 0.064	13.4 ± 0.38
MQTQIKVRGYHLDVYQHVNNARYLEFLEEARWDGLENSDSFQWMTAHNIAFVVVNININYRRPAVLSDLLTITSQLQQLNGKSGILSQVITLEPEGQVVADALITFVCIDLKTQKALALEGELREKLEQMVK	4.69 ± 0.88	3.29 ± 0.61	3.46 ± 0.25	–	3.35 ± 0.049	3.22 ± 0.17	5.29 ± 0.48	7.87 ± 0.63	3.29 ± 0.11	4.77 ± 0.72	5.365 ± 0.043	9.67 ± 0.54
MQTQVLFEHPLNEKMRTWLRIEFLIQQLTVNLPIVDHAGALHFFRNVSELLDVFERGEVRTELLKELDRQQRKLQTWIGVPGVDQSRIEALIQQLKAAGSVLISAPRIGQFLREDRLIALVRQRLSIPGGCCSFDLPTLHIWLHLPQAQRDSQVETWIASLNPLTQALTMVLDLIRQSAPFRKQTSLNGFYQDNGGDADLLRLNLSLDSQLYPQISGHKSRFAIRFMPLDTENGQVPERLDFELACC	6.32 ± 0.19	6.18 ± 0.41	6.06 ± 1.5	5.0717 ± 0.004	4.94 ± 0.2	2.66 ± 0.025	6.55 ± 0.5	–	4.87 ± 1.7	11.4 ± 6.5	5.66 ± 0.3	12.3 ± 1.5
MQTSPLLTQLMEALRCLPGVGPKSAQRMAFTLLQRDRSGGMRLAQALTRAMSEIGHCADCRTFTEQEVCNICSNPRRQENGQICVVESPADIYAIEQTGQFSGRYFVLMGHLSPLDGIGPDDIGLDRLEQRLAEEKITEVILATNPTVEGEATANYIAELCAQYDVEASRIAHGVPVGGELEMVDGTTLSHSLAGRHKIRF [P0A7H6]	5.56 ± 0.29	5.19 ± 0.32	4.36 ± 0.27	4.59 ± 0.36	4.21 ± 0.85	2.52 ± 0.099	4.09	8.57 ± 0.99	4.67	6.74 ± 0.68	4.79 ± 0.23	8.59

Reference: the supplement of paper PMC11246515
